Measured values: publication PMC10786891, “Massively parallel profiling of RNA-targeting CRISPR-Cas13d”

T1: EsCas13d, nuclease-dead (Eubacterium siraeum, UniProt B0MS50, R295A;H300A;R849A;H854A)
T1 sequence: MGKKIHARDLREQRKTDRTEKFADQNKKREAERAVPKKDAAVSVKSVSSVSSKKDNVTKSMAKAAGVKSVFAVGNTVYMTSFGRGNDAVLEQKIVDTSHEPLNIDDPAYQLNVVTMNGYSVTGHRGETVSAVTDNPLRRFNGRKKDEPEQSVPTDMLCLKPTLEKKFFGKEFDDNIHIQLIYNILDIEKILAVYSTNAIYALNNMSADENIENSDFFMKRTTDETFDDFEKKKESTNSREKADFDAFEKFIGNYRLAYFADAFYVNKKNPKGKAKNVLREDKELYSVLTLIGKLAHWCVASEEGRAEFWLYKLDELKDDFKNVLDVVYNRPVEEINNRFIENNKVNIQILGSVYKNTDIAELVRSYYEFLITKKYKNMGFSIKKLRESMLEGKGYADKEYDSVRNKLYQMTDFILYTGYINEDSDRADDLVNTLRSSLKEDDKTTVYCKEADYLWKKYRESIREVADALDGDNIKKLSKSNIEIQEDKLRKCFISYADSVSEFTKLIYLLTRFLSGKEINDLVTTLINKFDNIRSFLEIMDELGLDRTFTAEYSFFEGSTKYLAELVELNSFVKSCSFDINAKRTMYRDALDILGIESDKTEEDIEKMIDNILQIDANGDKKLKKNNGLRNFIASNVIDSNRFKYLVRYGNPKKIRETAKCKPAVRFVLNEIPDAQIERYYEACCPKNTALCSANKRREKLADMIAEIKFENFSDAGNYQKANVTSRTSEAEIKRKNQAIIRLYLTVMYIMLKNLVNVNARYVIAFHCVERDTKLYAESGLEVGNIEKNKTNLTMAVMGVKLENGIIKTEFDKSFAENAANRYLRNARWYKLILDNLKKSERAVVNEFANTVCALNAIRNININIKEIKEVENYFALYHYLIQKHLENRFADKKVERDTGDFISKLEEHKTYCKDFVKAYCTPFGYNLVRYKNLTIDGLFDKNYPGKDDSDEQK


Target: T1, EsCas13d, nuclease-dead
Assay: crRNA (strand 1, pre-loaded); Mg2+; 40 mM Tris-HCl pH 7.5, 150 mM NaCl, 6 mM MgCl2, 1 mM DTT, 0.1% Tween-20, 0.2 mg/ml BSA; 25 C; 10 min per concentration, then washed
Details: tags: His6-TwinStrep-SUMO cleaved; N-terminal SNAP kept (SNAP-Surface 488); label: 3' end held by stalled T7 RNA polymerase

Row | Binder | Kd
1 | target 1 insG 3' of 11,insA 3' of 10 (mixed) RNA 1: CACCCGUGCAAAAAUGCAGGGGUCUAAAACUGAGCGGAUAACCUCUCUAUGG RNA 2: GGGAAUGGAUCCACAUCUACGAAUUCGUACCAUAGAGAGGUGUAAUCCGCUCACCGAGAUCGGAAGAGCACACGU | 21.5 ± 2.4 nM
2 | target 1 insC 3' of 22,insG 3' of 14 (mixed) RNA 1: CACCCGUGCAAAAAUGCAGGGGUCUAAAACUGAGCGGAUAACCUCUCUAUGG RNA 2: GGGAAUGGAUCCACAUCUACGAAUUCGUACCCAUAGAGAGGGUUAUCCGCUCACCGAGAUCGGAAGAGCACACGU | 47 ± 5 nM
3 | target 1 C6U,C22A (mixed) RNA 1: CACCCGUGCAAAAAUGCAGGGGUCUAAAACUGAGCGGAUAACCUCUCUAUGG RNA 2: GGGAAUGGAUCCACAUCUACGAAUUCGUAACAUAGAGAGGUUAUCUGCUCACCGAGAUCGGAAGAGCACACGU | 15.8 ± 1.4 nM
4 | target 1 G12A,A16C (mixed) RNA 1: CACCCGUGCAAAAAUGCAGGGGUCUAAAACUGAGCGGAUAACCUCUCUAUGG RNA 2: GGGAAUGGAUCCACAUCUACGAAUUCGUACCAUAGCGAGAUUAUCCGCUCACCGAGAUCGGAAGAGCACACGU | 36 ± 3.3 nM
5 | target 1 G5C,A18U (mixed) RNA 1: CACCCGUGCAAAAAUGCAGGGGUCUAAAACUGAGCGGAUAACCUCUCUAUGG RNA 2: GGGAAUGGAUCCACAUCUACGAAUUCGUACCAUUGAGAGGUUAUCCCCUCACCGAGAUCGGAAGAGCACACGU | 27 ± 4 nM
6 | target 1 insG 3' of 6,insA 3' of 4 (mixed) RNA 1: CACCCGUGCAAAAAUGCAGGGGUCUAAAACUGAGCGGAUAACCUCUCUAUGG RNA 2: GGGAAUGGAUCCACAUCUACGAAUUCGUACCAUAGAGAGGUUAUCCGGCAUCACCGAGAUCGGAAGAGCACACGU | 6.9 ± 0.4 nM
7 | target 1 insC 3' of 22,insU 3' of 9 (mixed) RNA 1: CACCCGUGCAAAAAUGCAGGGGUCUAAAACUGAGCGGAUAACCUCUCUAUGG RNA 2: GGGAAUGGAUCCACAUCUACGAAUUCGUACCCAUAGAGAGGUUAUUCCGCUCACCGAGAUCGGAAGAGCACACGU | 30 ± 5 nM
8 | target 1 insU 3' of 13,insA 3' of 10 (mixed) RNA 1: CACCCGUGCAAAAAUGCAGGGGUCUAAAACUGAGCGGAUAACCUCUCUAUGG RNA 2: GGGAAUGGAUCCACAUCUACGAAUUCGUACCAUAGAGAGUGUUAAUCCGCUCACCGAGAUCGGAAGAGCACACGU | 26 ± 5 nM
9 | target 1 C7U,A14U (mixed) RNA 1: CACCCGUGCAAAAAUGCAGGGGUCUAAAACUGAGCGGAUAACCUCUCUAUGG RNA 2: GGGAAUGGAUCCACAUCUACGAAUUCGUACCAUAGAGUGGUUAUUCGCUCACCGAGAUCGGAAGAGCACACGU | 37 ± 5 nM
10 | target 1 insA 3' of 4,insA 3' of 2 (mixed) RNA 1: CACCCGUGCAAAAAUGCAGGGGUCUAAAACUGAGCGGAUAACCUCUCUAUGG RNA 2: GGGAAUGGAUCCACAUCUACGAAUUCGUACCAUAGAGAGGUUAUCCGCAUCAACCGAGAUCGGAAGAGCACACGU | 6.2 ± 0.5 nM
11 | target 1 insG 3' of 11,insG 3' of 9 (mixed) RNA 1: CACCCGUGCAAAAAUGCAGGGGUCUAAAACUGAGCGGAUAACCUCUCUAUGG RNA 2: GGGAAUGGAUCCACAUCUACGAAUUCGUACCAUAGAGAGGUGUAGUCCGCUCACCGAGAUCGGAAGAGCACACGU | 17.2 ± 0.6 nM
12 | target 1 C4A,G12A (mixed) RNA 1: CACCCGUGCAAAAAUGCAGGGGUCUAAAACUGAGCGGAUAACCUCUCUAUGG RNA 2: GGGAAUGGAUCCACAUCUACGAAUUCGUACCAUAGAGAGAUUAUCCGAUCACCGAGAUCGGAAGAGCACACGU | 4.9 ± 0.5 nM
13 | target 1 del2,del5 (mixed) RNA 1: CACCCGUGCAAAAAUGCAGGGGUCUAAAACUGAGCGGAUAACCUCUCUAUGG RNA 2: GGGAAUGGAUCCACAUCUACGAAUUCGUACCAUAGAGAGGUUAUCCCUACCGAGAUCGGAAGAGCACACGU | 16.9 ± 1 nM
14 | target 1 insA 3' of 15,insU 3' of 1 (mixed) RNA 1: CACCCGUGCAAAAAUGCAGGGGUCUAAAACUGAGCGGAUAACCUCUCUAUGG RNA 2: GGGAAUGGAUCCACAUCUACGAAUUCGUACCAUAGAGAAGGUUAUCCGCUCAUCCGAGAUCGGAAGAGCACACGU | 6.7 ± 0.7 nM
15 | target 1 U11A,G12A (mixed) RNA 1: CACCCGUGCAAAAAUGCAGGGGUCUAAAACUGAGCGGAUAACCUCUCUAUGG RNA 2: GGGAAUGGAUCCACAUCUACGAAUUCGUACCAUAGAGAGAAUAUCCGCUCACCGAGAUCGGAAGAGCACACGU | 4 ± 0.29 nM
16 | target 1 insC 3' of 12,insC 3' of 11 (mixed) RNA 1: CACCCGUGCAAAAAUGCAGGGGUCUAAAACUGAGCGGAUAACCUCUCUAUGG RNA 2: GGGAAUGGAUCCACAUCUACGAAUUCGUACCAUAGAGAGGCUCUAUCCGCUCACCGAGAUCGGAAGAGCACACGU | 17 ± 2.8 nM
17 | target 1 insG 3' of 14,insC 3' of 10 (mixed) RNA 1: CACCCGUGCAAAAAUGCAGGGGUCUAAAACUGAGCGGAUAACCUCUCUAUGG RNA 2: GGGAAUGGAUCCACAUCUACGAAUUCGUACCAUAGAGAGGGUUCAUCCGCUCACCGAGAUCGGAAGAGCACACGU | 47 ± 12 nM
18 | target 1 insC 3' of 11,insG 3' of 11 (mixed) RNA 1: CACCCGUGCAAAAAUGCAGGGGUCUAAAACUGAGCGGAUAACCUCUCUAUGG RNA 2: GGGAAUGGAUCCACAUCUACGAAUUCGUACCAUAGAGAGGUCGUAUCCGCUCACCGAGAUCGGAAGAGCACACGU | 42 ± 4 nM
19 | target 1 insG 3' of 14,insU 3' of 6 (mixed) RNA 1: CACCCGUGCAAAAAUGCAGGGGUCUAAAACUGAGCGGAUAACCUCUCUAUGG RNA 2: GGGAAUGGAUCCACAUCUACGAAUUCGUACCAUAGAGAGGGUUAUCCUGCUCACCGAGAUCGGAAGAGCACACGU | 39 ± 6 nM
20 | target 1 C4U,C6G (mixed) RNA 1: CACCCGUGCAAAAAUGCAGGGGUCUAAAACUGAGCGGAUAACCUCUCUAUGG RNA 2: GGGAAUGGAUCCACAUCUACGAAUUCGUACCAUAGAGAGGUUAUCGGUUCACCGAGAUCGGAAGAGCACACGU | 5.28 ± 0.32 nM
21 | target 1 insA 3' of 4,insC 3' of 1 (mixed) RNA 1: CACCCGUGCAAAAAUGCAGGGGUCUAAAACUGAGCGGAUAACCUCUCUAUGG RNA 2: GGGAAUGGAUCCACAUCUACGAAUUCGUACCAUAGAGAGGUUAUCCGCAUCACCCGAGAUCGGAAGAGCACACGU | 18.9 ± 3.3 nM
22 | target 1 insG 3' of 14,insU 3' of 7 (mixed) RNA 1: CACCCGUGCAAAAAUGCAGGGGUCUAAAACUGAGCGGAUAACCUCUCUAUGG RNA 2: GGGAAUGGAUCCACAUCUACGAAUUCGUACCAUAGAGAGGGUUAUCUCGCUCACCGAGAUCGGAAGAGCACACGU | 18.5 ± 1.2 nM
23 | target 1 insG 3' of 10,insU 3' of 9 (mixed) RNA 1: CACCCGUGCAAAAAUGCAGGGGUCUAAAACUGAGCGGAUAACCUCUCUAUGG RNA 2: GGGAAUGGAUCCACAUCUACGAAUUCGUACCAUAGAGAGGUUGAUUCCGCUCACCGAGAUCGGAAGAGCACACGU | 18.1 ± 1.4 nM
24 | target 1 insA 3' of 19,insU 3' of 18 (mixed) RNA 1: CACCCGUGCAAAAAUGCAGGGGUCUAAAACUGAGCGGAUAACCUCUCUAUGG RNA 2: GGGAAUGGAUCCACAUCUACGAAUUCGUACCAUAAUGAGAGGUUAUCCGCUCACCGAGAUCGGAAGAGCACACGU | 32 ± 1.6 nM
